Data published in patent publication US20240392013A1, “IL1RAP ANTIBODIES AND USES THEREOF” (STELEXIS THERAPEUTICS, LLC, priority 2021, published 2024).
Changes are numbered by the printed parent chain. Blank lines part the entries; values can stand above or below the molecule they belong to.

Legend:
hIL1RAP [1] = target: T1, hIL1RAP (Homo sapiens, UniProt Q9NPH3); assay: Kinetics of IL1RAP mAbs by Octet, human IL1RAP; format: binding; set-up: extracellular domain His-tagged, Cat #10121-H08H; His; purchased Sino Biological lot MB08MA1301 (catalogue number not given)
T1 sequence (Q9NPH3 21-367 limits assumed): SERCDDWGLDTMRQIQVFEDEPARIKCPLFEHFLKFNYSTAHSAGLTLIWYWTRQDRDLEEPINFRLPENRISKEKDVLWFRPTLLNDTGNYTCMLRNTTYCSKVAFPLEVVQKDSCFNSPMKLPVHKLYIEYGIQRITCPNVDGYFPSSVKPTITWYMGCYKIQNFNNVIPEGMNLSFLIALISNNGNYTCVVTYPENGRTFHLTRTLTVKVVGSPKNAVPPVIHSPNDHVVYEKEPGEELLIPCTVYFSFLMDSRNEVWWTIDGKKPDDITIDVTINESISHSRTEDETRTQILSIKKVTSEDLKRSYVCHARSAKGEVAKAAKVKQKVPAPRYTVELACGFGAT
Procedure: (§1) Antibodies were diluted in kinetics buffer (0.1% BSA, 0.02% Tween-20 and 0.05% NaN3 in PBS) and loaded onto 16 channel anti-mouse IgG Fc capture sensors (AMC, Cat #2001073; Sartorius, Göttingen, Germany). Human, huIL1RAP-His (Sino Biological, lot: MB08MA1301), and monkey, cyIL1RAP-His (Lake Pharma, NY, USA; lot:16205819371) proteins were titrated starting from the highest concentration of 100 nM and followed by 50 nM and 25 nM. Purified antibodies were loaded at 5 μg/ml in kinetics buffer. The experimental parameters selected to determine the kinetic constants were Baseline for 60 s, Loading of antibody to sensor for 180 s, Association of analyte to antibody for 120 s, Dissociation for 1200 s and Regeneration in 10 mM Glycine pH 1.7 for 4×30 s.
(§2) Regeneration cycle tracking was selected for 12 cycles. Binding to human and cynomolgus IL1RAP was measured and KD (M) kinetics were calculated. Also, the disassociation rate (Kdis) (1/s) and association rate (Kon) (1/Ms) kinetics were calculated (data not shown).

[2] = system: IL1-induced NFκB activity; assay: HEK-BlueIL1β NFκB Reporter Assay; format: cell-based; conditions: nM range, read-out: IC50, inhibition of IL1-induced NFκB activity
Procedure: The HEK-Blue IL1β (Invivogen, Cat #hkb-il1b) cell line was used to monitor NFκB activity upon stimulation with IL1β cytokine. In this cell line the secreted embryonic alkaline phosphatase reporter gene (SEAP) is inducibly expressed under the control of IFN-β minimal promoter fused to NFκB/AP-1. Specificity to IL1β cytokine was achieved by blockage of TNF-α response. The cells were maintained in the presence of hygromycin (200 μg/ml) and zeocin (100 μg/ml).
For the functional assay, cells were plated at a density of 5×10^4 cells/well in 96-well plates. Cells were treated with each antibody at the highest concentration of 200 μg/ml followed by seven serial 1:3 dilutions and incubated for 45 minutes at 37° C./5% CO2 in humified incubator. Cells were then stimulated with IL1β ([…]) and incubated overnight at 37° C./5% CO2 in humified incubator. Every treatment was conducted in triplicates. Following, supernatants from each well were mixed with Quanti-Blue substrate (Invivogen, CA USA; Cat #rep-qb1) according to manufacturer's recommendations and secreted SEAP was measured using spectrophotometer at 650 nm.

hIL1RAP [3] = target: T1, hIL1RAP; assay: Binding of mAbs to human IL1RAP protein by cell-free ELISA; set-up: extracellular domain His-tagged, Cat #10121-H08H; His; purchased Sino Biological 10121-H08H; conditions: FIG. 1
Procedure: Recombinant human or mouse IL1RAP proteins (Sino Biological, Beijing, China; Cat #10121-H08H and Sino Biological, Cat #52657-M08H respectively) were diluted in PBS, pH 7.4 at concentration of 1 μg/ml, coated on high-binding 384-well clear plates and incubated overnight at 4° C. Following, plates were washed 3× with 0.05% Tween-20 in PBS, pH 7.5 and then blocked with 1% BSA in PBS for 1 hour at room temperature. After 3× washes, wells were incubated with each antibody at the highest concentration of 100 nM followed by seven serial half log dilutions (in 1% BSA and 0.05% Tween-20 in PBS) for 1 hour at room temperature. Plates were then washed 3× and incubated with […] detection antibody (Medna, TX, USA; Cat #D8212, 0.5 μg/ml diluted in 0.02% Tween-20 in PBS). After 5× washes, Supersignal ELISA Pico substrate (Thermofisher, MA, USA; Cat #37069) was applied to wells and chemiluminescent signal was read on Sprectramax L for 200 ms/well. Similarly, detection with specific κ and λ antibodies was conducted to define light chain isotyping.
Binding of mAbs to human IL1RAP protein was determined by cell-free ELISA. mAbs bound to human IL1RAP and EC50 values were calculated at the nM range.

A431 cells = assay: IL-36-induced IL-8 secretion, ELISA; format: cell-based, human; conditions: IL-36γ, 72 hours, dose-dependent
Procedure: Methods: A431 cells were seeded on CytoOne® 24 well plate (USA Scientific, Cat #CC7682-7524) at 0.05×10^6/mL and were kept at 37° C./5% CO2 in humified incubator. After 6 hours the cells were treated with IL-36γ (0.5 ng/ml) in the presence or absence of IL1RAP antibodies at 66 nM, 200 nM, 666 nM and […]. Cell culture media was collected after 72 hours and was centrifuged at 4° C. for 5 min. All supernatant samples were analyzed in triplicates. Human IL-8 microplate (R&D cat #890462) was incubated for 2 hours at room temperature with standard, control, or supernatant samples (1001) diluted in assay Diluent RD1-85 (1001). Samples were aspirated and washed with wash buffer (R&D Part #895003) for four times. Human IL-8 conjugate (200 μl) (R&D cat #890465) was added to each well and incubated for 2 hours at room temperature. Aspiration/wash step was repeated as stated above. Equal volume of substrate color reagent A (R&D, cat #895000) and B (R&D, cat #895001) were mixed, and the substrate solution (200 ul) was added to each well and incubated for 20 minutes at room temperature in the dark. Stop solution (501) (R&D, cat #895032) was added to each well and optical density of each well was determined at 450 nm with Cytation™ Cell Imaging Multi-Mode Reader (BioTek).

cyIL1RAP = assay: Kinetics of IL1RAP mAbs by Octet, cynomolgus IL1RAP; format: binding
Procedure: as §1, §2

- hIL1RAP kdis(1/s) (hIL1RAP [1]): 0.000287 s⁻¹
- hIL1RAP kon(1/Ms) (hIL1RAP [1]): 307700 M⁻¹ s⁻¹
- IC50 [2]: 1.31 nM
B1: 74804_12A21B: anti-IL1RAP mAb; VH SEQ ID NO:6, VL SEQ ID NO:23, κ light chain (antibody, V domains shown)
VH: QVQLLQSGAEVKKPGSSVKVSCKASGGTFSIYAIDWVRQAPGQGLEWMGGIIPIFGTANSAQKFQGRVTITADKSTSTAYMELSSLRSEDTAVYYCARNGATSDAFDMWGQGTMVTVSS
VL: EIVLTQSPGTLSLSPGERATLSCRASLSVSSNYLAWFQQRPGQAPRLLIHGVSRRATGIPDRFSGSGSGTDFTLTISRLEPEDFAVYYCQQYGSSPLTFGGGTKVEIK
modifications: 74804_12A21B VH and 74804_29D13A VH; 74804_12A21B VL
- Binding to human IL1RAP (hIL1RAP [3]): bound to human IL1RAP in a dose dependent manner
- IL-36-induced IL-8 secretion (A431 cells): inhibited
- cyIL1RAP kdis(1/s) (cyIL1RAP): 0.000441 s⁻¹
- cyIL1RAP kon(1/Ms) (cyIL1RAP): 342200 M⁻¹ s⁻¹

- hIL1RAP kdis(1/s) (hIL1RAP [1]): 0.000149 s⁻¹
- hIL1RAP kon(1/Ms) (hIL1RAP [1]): 350200 M⁻¹ s⁻¹
- IC50 [2]: 2.29 nM
B2: 74804_43F04A: anti-IL1RAP mAb; VH SEQ ID NO:7, VL SEQ ID NO:22, κ light chain (antibody, V domains shown)
VH: B1 VH with A58E, K63N, V68I, S77N, M108I, S118F
VL: B1 VL with H50Y
modifications: 74804_43F04A VH; 74804_07K10A VL, 74804_29D13A VL and 74804_43F04A VL
- Binding to human IL1RAP (hIL1RAP [3]): bound to human IL1RAP in a dose dependent manner
- IL-36-induced IL-8 secretion (A431 cells): inhibited
- cyIL1RAP kdis(1/s) (cyIL1RAP): 0.0004 s⁻¹
- cyIL1RAP kon(1/Ms) (cyIL1RAP): 412100 M⁻¹ s⁻¹
